Patent US20230036928A1 (Sanofi, published 2023)

Target: T1, TGF-β2
T1 sequence (P61812 303-414, species assumed, looked up): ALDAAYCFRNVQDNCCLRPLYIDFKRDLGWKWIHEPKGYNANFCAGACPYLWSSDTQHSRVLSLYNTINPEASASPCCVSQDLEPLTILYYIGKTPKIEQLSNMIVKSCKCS
Assay: cell-based or functional assay

B1: Ab1 (antibody, human IgG4 S228P, kappa, V domains shown)
VH: QVQLVQSGAEVKKPGSSVKVSCKASGYTFSSNVISWVRQAPGQGLEWMGGVIPIVDIANYAQRFKGRVTITADESTSTTYMELSSLRSEDTAVYYCASTLGLVLDAMDYWGQGTLVTVSS
VL: ETVLTQSPGTLSLSPGERATLSCRASQSLGSSYLAWYQQKPGQAPRLLIYGASSRAPGIPDRFSGSGSGTDFTLTISRLEPEDFAVYYCQQYADSPITFGQGTRLEIKR
  relative potency (EC50 of the reference divided by EC50 of the test sample) in mink lung cell proliferation assay with PrestoBlue read-out: ~1 ratio (relative potency)
